Molecular target: T1, LbuCas13a R377A (Leptotrichia buccalis, UniProt C7NBY4 SEQ:1-1159)
T1 chain: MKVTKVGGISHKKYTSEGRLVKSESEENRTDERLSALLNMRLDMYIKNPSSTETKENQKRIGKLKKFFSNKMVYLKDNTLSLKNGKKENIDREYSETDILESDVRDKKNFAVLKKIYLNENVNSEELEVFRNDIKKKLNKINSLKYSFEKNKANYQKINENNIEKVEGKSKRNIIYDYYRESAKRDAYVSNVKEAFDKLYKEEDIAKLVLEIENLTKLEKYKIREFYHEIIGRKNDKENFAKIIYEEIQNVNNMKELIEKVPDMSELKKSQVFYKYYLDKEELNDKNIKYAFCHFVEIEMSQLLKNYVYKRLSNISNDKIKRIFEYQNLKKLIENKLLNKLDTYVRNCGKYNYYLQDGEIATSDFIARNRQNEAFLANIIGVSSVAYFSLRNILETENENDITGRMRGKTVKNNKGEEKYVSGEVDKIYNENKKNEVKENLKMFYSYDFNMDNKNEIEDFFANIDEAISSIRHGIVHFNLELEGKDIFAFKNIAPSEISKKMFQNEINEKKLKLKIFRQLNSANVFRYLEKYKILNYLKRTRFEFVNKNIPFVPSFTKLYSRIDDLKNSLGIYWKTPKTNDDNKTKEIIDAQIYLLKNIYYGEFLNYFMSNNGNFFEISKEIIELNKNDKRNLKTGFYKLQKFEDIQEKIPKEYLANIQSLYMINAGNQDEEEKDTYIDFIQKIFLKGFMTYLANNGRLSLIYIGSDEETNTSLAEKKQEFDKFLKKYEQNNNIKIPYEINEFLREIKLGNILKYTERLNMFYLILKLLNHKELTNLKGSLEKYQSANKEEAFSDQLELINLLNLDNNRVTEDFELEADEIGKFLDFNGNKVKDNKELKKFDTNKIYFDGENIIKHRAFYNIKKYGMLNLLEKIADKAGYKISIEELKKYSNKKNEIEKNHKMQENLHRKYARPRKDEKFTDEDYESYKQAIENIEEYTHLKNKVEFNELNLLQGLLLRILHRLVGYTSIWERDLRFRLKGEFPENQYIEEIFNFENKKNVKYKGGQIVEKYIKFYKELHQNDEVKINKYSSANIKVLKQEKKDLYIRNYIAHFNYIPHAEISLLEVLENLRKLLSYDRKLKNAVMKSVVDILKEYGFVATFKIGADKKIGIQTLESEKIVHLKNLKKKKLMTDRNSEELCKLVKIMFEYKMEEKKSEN
Assay: cleavage_in_vitro; 10 nM; decreased about 50% vs WT; inactive at 100 pM
Conditions: tags: His6-MBP-TEV (cleaved); hairpin in direct repeat

B1: del crRNA 20 nt spacer ; perfect match target RNA (ssRNA ; ssRNA)
RNA 1: GGCCACCCCAAAAAUGAAGGGGACUAAAACACAAAUCUAUCUGAAUAAAC
RNA 2: GGGAAACCAAGAAGAAGAGUUUAUUCAGAUAGAUUUGUCACAGCAGAAGCCCACAC
For B1, the activity was ~50 % of WT.

Reference: patent US20250368975, “COMPOSITIONS, METHODS AND SYSTEMS FOR HIGH-FIDELITY CAS13A VARIANTS WITH IMPROVED SPECIFICITY” (University of Rochester, published 2025)
